B1: ST6GalNAc5 (Δ71ST6GalNAc5): N137Q/N161Q (protein)
parent chain: MKTLMRHGLAVCLALTTMCTSLLLVYSSLGGQKERPPQQQQQQQQQQQQASATGSSQPAAESSTQQRPGVPAGPRPLDGYLGVADHKPLKMHCRDCALVTSSGHLLHSRQGSQIDQTECVIRMNDAPTRGYGRDVGNRTSLRVIAHSSIQRILRNRHDLLNVSQGTVFIFWGPSSYMRRDGKGQVYNNLHLLSQVLPRLKAFMITRHKMLQFDELFKQETGKDRKISNTWLSTGWFTMTIALELCDRINVYGMVPPDFCRDPNHPSVPYHYYEPFGPDECTMYLSHERGRKGSHHRFITEKRVFKNWARTFNIHFFQPDWKPESLAINHPENKPVF
B2: ST6GalNAc6 (Δ70ST6GalNAc6): N98Q/N149Q (protein)
parent chain: MACSRPPSQCEPTSLPPGPPAGRRHLPLSRRRREMSSNKEQRSAVFVILFALITILILYSSNSANEVFHYGSLRGRSRRPVNLKKWSITDGYVPILGNKTLPSRCHQCVIVSSSSHLLGTKLGPEIERAECTIRMNDAPTTGYSADVGNKTTYRVVAHSSVFRVLRRPQEFVNRTPETVFIFWGPPSKMQKPQGSLVRVIQRAGLVFPNMEAYAVSPGRMRQFDDLFRGETGKDREKSHSWLSTGWFTMVIAVELCDHVHVYGMVPPNYCSQRPRLQRMPYHYYEPKGPDECVTYIQNEHSRKGNHHRFITEKRVFSSWAQLYGITFSHPSWT

How the values were obtained:
Conditions in all cases: glycan lost; control: wild type
[1] = NanoDSF, onset of melting, Tris buffer
[2] = CD spectroscopy, secondary structure content
[3] = secreted protein yield, P. pastoris X-33
[4] = DSLNT formation, TLC and HPLC
[5] = NanoDSF, midpoint melting temperature
[6] = NanoDSF, onset and Tm, Tris and HEPES

Row | Protein | stability_or_folding, other: onset-of-melting temperature [1] | structure_or_conformation [2] | expression_or_secretion, fold_change [3] | enzymatic_activity, other: DSLNT produced [4] | stability_or_folding, Tm [5] | stability_or_folding, Tm [6] | enzymatic_activity [4]
1 | B1 | decreases | changes | decreases | decreases, 0.189 ± 0.005 (4.5 µM enzyme) vs 0.202 ± 0.036 (1.0 µM enzyme) | no change | – | –
2 | B2 | – | changes | decreases | – | – | decreases, reduced by 7.3 (Tris), 10 (HEPES) vs 56.8 | abolishes
